According to US7807162B2, “Single domain VHH antibodies against von Willebrand factor” (Ablynx N.V., priority 2005, dated 2010):
Several values for one entry are separate records, joined by “and”; a condition that tells them apart may be missing. Equal values may be shown once.

Assays:
[1] = tested on: cyclic flow reductions (CFRs) in injured, stenosed femoral artery; assay: Folts thrombosis model in baboons: length/inhibition of cyclic flow reductions (CFRs); assay type: in vivo, baboon (Papio ursinus)
Experimental: The study protocol that was applied is the original Folts model and some modifications described below (Folts J D, et al, Circulation. 1976; 54:365-370). Healthy male or female baboons (Papio ursinus) were used. The animals were 8-17 kg of weight and were disease-free for at least 2 weeks prior to use. The baboons were fed with dry standard food only. The baboons were used at different time points. […] Animals were anaesthetized and body temperature is maintained at 37° C. with a heating table. A segment of a femoral artery was dissected free from surrounding tissue. A shunt was placed between the femoral vein and femoral artery to obtain high shear rates. The mean and phasic blood flow was recorded continuously throughout the experiment. Baseline flow was recorded for 20 minutes. […] A clamp was placed over the injured site to create an external stenosis. A gradual decline in blood flow due to platelet adhesion and aggregation was observed. When flow was reduced to zero, blood flow was restored by opening the clamp to dislodge the platelet-rich thrombus. This repetitive pattern of decreasing blood flow following mechanical restoration is referred to as cyclic flow reductions (CFRs). Additional endothelial injury was repeated if needed to finally obtain stable CFRs in these baboons. The number of times the thrombus needed to be dislodged determines the number of CFRs. FIG. 24 illustrates blood flow pattern during the Folts model in baboons. […] This procedure was repeated for several times with escalating doses of the test substance. The anti-thrombotic effect was quantified by comparing the length of CFRs before and after drug administration. When full inhibition of CFRs was observed, a new injury was applied in order to confirm that the inhibition was an effect of the treatment but not of a natural healing phenomenon.

[2] = tested on: platelet adhesion to collagen type III; assay: Inhibition of platelet adhesion by nanobodies in a flow (perfusion) chamber; assay type: cell-based, human; settings: for % Platelet adhesion at 2 μg/ml: human blood, collagen type III, wall shear rate 1600 s^−1
Experimental: The protein samples were analysed in a perfusion chamber. Thermanox coverslips (Nunc) were soaked overnight in 80% ethanol, rinsed thoroughly with distilled water and air-dried. Human placental collagen type III (Sigma) was solubilized in 0.05 mol/l acetic acid and sprayed on the coverslips at a final density of 30 μg/cm^2 with a retouching airbrush. After spraying the coverslips were blocked with 1% human albumin solution in PBS for at least 1 hour at RT. Perfusions were performed with a single-pass perfusion chamber under non-pulsatile flow conditions using a modified small perfusion chamber with a slit height of 0.1 mm and a slit width of 2 mm. Blood was obtained by venipuncture from healthy volunteers and anti-coagulated with Penta/PPACK. Triplicate coverslips were inserted into the chamber. […] After a perfusion run, the coverslip was taken from the chamber, rinsed in Hepes buffered saline (10 mM Hepes, 150 mM NaCL, ph 7.4), fixed in 0.5% glutaraldehyde in PBS, dehydrated in methanol and stained with May-Grünwald and Giemsa (Riedel de Haën). Platelet deposition was evaluated as platelet surface coverage using light microscopy and computer-assisted analysis.

[3] = number of experiments with inhibition / total number of independent repeats

Molecule: CC(=O)Oc1ccccc1C(=O)O [Aspegic]
- Length of CFRs ([1]; Aspegic final dose 1 mg/kg, individual baboons 3, 4, 5, 1 mg/kg): 149 s and 164 s and 135 s
- Length of CFRs ([1]; Aspegic final dose 2.5 mg/kg, individual baboons 3, 4, 5, 2.5 mg/kg): 102 s and 325 s and 115 s
- Length of CFRs ([1]; Aspegic final dose 5 mg/kg, individual baboons 3, 4, 5, 5 mg/kg): 102 s and 1800 s and 245 s
- Length of CFRs ([1]; Aspegic final dose 10 mg/kg, individual baboons 3, 4, 5, 10 mg/kg): 113 s and 905 s and 156 s
- Length of CFRs ([1]; Aspegic final dose 20 mg/kg, individual baboons 3, 4, 5, 20 mg/kg): 125 s and 657 s and 169 s
- Length of CFRs ([1]; Aspegic final dose 40 mg/kg, individual baboons 3, 5, 40 mg/kg): 110 s and 145 s
- Length of CFRs ([1]; Aspegic final dose 80 mg/kg, baboon 3): 129 s
- Length of CFRs ([1]; Aspegic-treated, after Epinephrin, baboon 4): 161 s
- Inhibition of CFRs ([1]; baboon 3 and 5, doses as high as 80 and 40 mg/kg respectively): no inhibition of CFRs could be obtained
- dose at which full inhibition of CFRs was obtained ([1]; baboon 4): 5 mg/kg
- mean length of the CFRs versus before administration ([1]; baboon 4, higher doses and upon new injury, CFRs returned): 3-4 times
- Inhibition of CFRs [1, 3]: 0/3
- Inhibition of CFRs after administration of Epinephrin [1, 3]: 0/1
- Inhibition of CFRs after new injury [1, 3]: 0/3

B1: 12A2-3a-12A2 (protein)
VHH: QVKLEESGGGLVQAGGALRLSCAASGRTFSYNPMGWFRQAPGKERDLVAAISRTGGSTYYPDSVEGRFTISRDNAKRMVYLQMNNLKPEDTAVYYCAAAGVRAEDGRVRTLPSEYTFWGQGTQVTVSSAAAEVQLVESGGGLVQAGGALRLSCAASGRTFSYNPMGWFRQAPGKERDLVAAISRTGGSTYYPDSVEGRFTISRDNAKRMVYLQMNNLKPEDTAVYYCAAAGVRAEDGRVRTLPSEYTFWGQGTQVTVSS
- % Platelet adhesion ([2]; 0.1 μg/ml nanobody, Table 23): 74 ± 5%
- % Platelet adhesion ([2]; 0.2 μg/ml nanobody, Table 23): 50 ± 3%
- % Platelet adhesion ([2]; 0.3 μg/ml nanobody, Table 41): 10 ± 8%
- % Platelet adhesion ([2]; 0.4 μg/ml nanobody, Table 23): 33 ± 0%
- % Platelet adhesion ([2]; 0.6 μg/ml nanobody, Table 41): 4 ± 3%

B2: 14F8: anti-vWF nanobody, SEQ ID NO: 66 (protein)
VHH: AVQLVESGGGLVQAGESLRLSCTSSGRAFSYYNTGWFRQAPGKEREFVAAISWSGGLTYYADSVKGRFTISRDNAKDMVYLQMASLKPEDTAVYYCAANRRQKTVQMGERAYDYWGQGTQVTVSS
- % Platelet adhesion at 2 μg/ml ([2]; 2 μg/ml nanobody): 51 ± 10%

B3: 12A2H4: humanised 12A2 nanobody, SEQ ID NO: 92 (protein)
VHH: EVQLVESGGGLVQPGGSLRLSCAASGRTFSYNPMGWFRQAPGKGRELVAAISRTGGSTYYPDSVEGRFTISRDNAKRSVYLQMNSLRAEDTAVYYCAAAGVRAEDGRVRTLPSEYTFWGQGTQVTVSS
- % Platelet adhesion ([2]; 0.5 μg/ml nanobody, Table 32): 61 ± 1%
- % Platelet adhesion ([2]; 0.7 μg/ml nanobody, Table 31): 55 ± 1%
- % Platelet adhesion ([2]; 1 μg/ml nanobody, Table 32): 57 ± 1%
- % Platelet adhesion ([2]; 2 μg/ml nanobody, Table 32): 46 ± 5%

B4: 12A2H1: humanised 12A2 nanobody, SEQ ID NO: 90 (protein)
VHH: EVQLVESGGGLVQPGGSLRLSCAASGRTFSYNPMGWFRQAPGKGRELVAAISRTGGSTYYPDSVEGRFTISRDNAKRMVYLQMNSLRAEDTAVYYCAAAGVRAEDGRVRTLPSEYTFWGQGTQVTVSS
- % Platelet adhesion ([2]; 0.5 μg/ml nanobody, Table 32): 40 ± 9%
- % Platelet adhesion ([2]; 0.7 μg/ml nanobody, Table 31): 49 ± 1%
- % Platelet adhesion ([2]; 1 μg/ml nanobody, Table 32): 43 ± 3%
- % Platelet adhesion ([2]; 2 μg/ml nanobody, Table 32): 38 ± 5%

B5: 12C9: anti-vWF nanobody, SEQ ID NO: 65 (protein)
VHH: AVQLVESGGGLVQPGGSLKLSCATSGSIFSSSAMAWYRQASGKQRELVATITSGGRTSYADSVKGRFTISRDNAKNTVYLQMNSLKPEDTAVYDCNFVVDGKRAPWGQGTQVTVSS
- % Platelet adhesion at 2 μg/ml ([2]; 2 μg/ml nanobody): 68 ± 8%

B6: 12A2H4-3a-12A2H4 (protein)
chain: EVQLVESGGGLVQPGGSLRLSCAASGRTFSYNPMGWFRQAPGKGRELVAAISRTGGSTYYPDSVEGRFTISRDNAKRSVYLQMNSLRAEDTAVYYCAAAGVRAEDGRVRTLPSEYTFWGQGTQVTVSSAAAEVQLVESGGGLVQPGGSLRLSCAASGRTFSYNPMGWFRQAPGKGRELVAAISRTGGSTYYPDSVEGRFTISRDNAKRSVYLQMNSLRAEDTAVYYCAAAGVRAEDGRVRTLPSEYTFWGQGTQVTVSS
- % Platelet adhesion ([2]; 0.3 μg/ml nanobody, Table 41): 10 ± 6%
- % Platelet adhesion ([2]; 0.6 μg/ml nanobody, Table 41): 8 ± 4%

B7: 12B6H2-3a-12B6H2 (protein)
VHH: EVQLVESGGGLVQPGGSLRLSCAASGRTFSYNPMGWFRQAPGKGREVVAAISRTGGSTYYARSVEGRFTISRDNAKRMVYLQMNSLRAEDTAVYYCAAAGVRAEDGRVRTLPSEYNFWGQGTQVTVSSAAAEVQLVESGGGLVQPGGSLRLSCAASGRTFSYNPMGWFRQAPGKGREVVAAISRTGGSTYYARSVEGRFTISRDNAKRMVYLQMNSLRAEDTAVYYCAAAGVRAEDGRVRTLPSEYNFWGQGTQVTVSS
- % Platelet adhesion ([2]; 0.3 μg/ml nanobody, Table 41): 30 ± 16%
- % Platelet adhesion ([2]; 0.6 μg/ml nanobody, Table 41): 17 ± 6%

B8: 12A2-GS9-12A2 (protein)
VHH: QVKLEESGGGLVQAGGALRLSCAASGRTFSYNPMGWFRQAPGKERDLVAAISRTGGSTYYPDSVEGRFTISRDNAKRMVYLQMNNLKPEDTAVYYCAAAGVRAEDGRVRTLPSEYTFWGQGTQVTVSSGGGGSGGGSEVQLVESGGGLVQAGGALRLSCAASGRTFSYNPMGWFRQAPGKERDLVAAISRTGGSTYYPDSVEGRFTISRDNAKRMVYLQMNNLKPEDTAVYYCAAAGVRAEDGRVRTLPSEYTFWGQGTQVTVSS
- % Platelet adhesion ([2]; 0.1 μg/ml nanobody, Table 23): 81 ± 1%
- % Platelet adhesion ([2]; 0.2 μg/ml nanobody, Table 23): 73 ± 1%
- % Platelet adhesion ([2]; 0.4 μg/ml nanobody, Table 23): 40 ± 2%

B9: 12D11: anti-vWF nanobody, SEQ ID NO: 63 (protein)
VHH: AVQLVDSGGGLVQAGGSLRLSCTASERTTFSSYTLGWFRQAPGKEREFVGGISWSGVSTDYAEFAKGRFTISRDHAANTVYLEMNSLKPEDTAVYYCAALGRYRSNWRNIGQYDYWGQGTQVTVSS
- % Platelet adhesion at 2 μg/ml ([2]; 2 μg/ml nanobody): 61 ± 7%

B10: 12B6-3a-12B6 (protein)
VHH: QVQLVESGGGLVQAGGALRLSCAASGRTFSYNPMGWFRQAPGKERDVVAAISRTGGSTYYARSVEGRFTISRDNAKRMVYLQMNALKPEDTAVYYCAAAGVRAEDGRVRTLPSEYNFWGQGTQVTVSSAAAEVQLVESGGGLVQAGGALRLSCAASGRTFSYNPMGWFRQAPGKERDVVAAISRTGGSTYYARSVEGRFTISRDNAKRMVYLQMNALKPEDTAVYYCAAAGVRAEDGRVRTLPSEYNFWGQGTQVTVSS
- % Platelet adhesion ([2]; 0.3 μg/ml nanobody, Table 41): 15 ± 6%
- % Platelet adhesion ([2]; 0.6 μg/ml nanobody, Table 41): 8 ± 6%

B11: 12B1: anti-vWF nanobody, SEQ ID NO: 61 (protein)
VHH: QVQLVESGGGLVQAGGSLRLSCAASGRTFSNYGMGWFRQAPGKEREFVTSISWSGTYTAYSDNVKGRFTISRDNAKNTVYLQMDSLKPEDTAVYYCAAQSRYRSNYYDHDDKYAYWGQGTQVTVSS
- % Platelet adhesion at 2 μg/ml ([2]; 2 μg/ml nanobody): 56 ± 3%

B12: 12E3: anti-vWF nanobody, SEQ ID NO: 64 (protein)
VHH: EVQLVESGGGLVQAGGSLRLSCAASGRTFNNYGMGWFRQAPGKEREFVTSISWSGSYTAYADNVKGRFTISRDNAKNTVYLQMDSLKPGDTAVYYCAAQSRYSSNYYDHDDKYAYWGQGTQVTVSS
- % Platelet adhesion at 2 μg/ml ([2]; 2 μg/ml nanobody): 54 ± 1%

B13: 12A5: anti-vWF nanobody, SEQ ID NO: 60 (protein)
VHH: AVQLVESGGGLVQPGGSLRLSCLASGRIFSIGAMGMYRQAPGKQRELVATITSGGSTNYADPVKGRFTISRDGPKNTVYLQMNSLKPEDTAVYYCYANLKQGSYGYRFNDYWGQGTQVTVSS
- % Platelet adhesion ([2]; 0.2 μg/ml nanobody, Table 15): 50 ± 7%
- % Platelet adhesion ([2]; 0.4 μg/ml nanobody, Table 15): 27 ± 10%
- % Platelet adhesion ([2]; 0.6 μg/ml nanobody, Table 15): 2 ± 2%
- % Platelet adhesion at 2 μg/ml ([2]; 2 μg/ml nanobody): 10 ± 3%
- inhibition of platelet adhesion to collagen type III ([2]; perfusion chamber at high shear rate): clearly inhibit platelet adhesion
- concentration with full inhibition of platelet adhesion ([2]; tested at 0.2, 0.4 and 0.6 μg/ml, same donor): 0.6 µg/mL
